In publication PMC4737579:
Non-standard residues stand in square brackets, D forms with d. No end group written: not given here.

Molecular target: soluble human furin (human) (UniProt P09958)
Assay: enzyme inhibition

B1: nona-D-arginine (peptide)
peptide: [dR][dR][dR][dR][dR][dR][dR][dR][dR]
Binder B1 has a Ki of 140 nM.
